Target: T1, Recombinant human FAP (fibroblast activation protein) (human, UniProt Q12884 26-760)
T1 construct: Bought soluble recombinant protein; Chemically biotinylated for the HTRF screen; also called hFAP; biotinylated human FAP
T1 sequence (looked up): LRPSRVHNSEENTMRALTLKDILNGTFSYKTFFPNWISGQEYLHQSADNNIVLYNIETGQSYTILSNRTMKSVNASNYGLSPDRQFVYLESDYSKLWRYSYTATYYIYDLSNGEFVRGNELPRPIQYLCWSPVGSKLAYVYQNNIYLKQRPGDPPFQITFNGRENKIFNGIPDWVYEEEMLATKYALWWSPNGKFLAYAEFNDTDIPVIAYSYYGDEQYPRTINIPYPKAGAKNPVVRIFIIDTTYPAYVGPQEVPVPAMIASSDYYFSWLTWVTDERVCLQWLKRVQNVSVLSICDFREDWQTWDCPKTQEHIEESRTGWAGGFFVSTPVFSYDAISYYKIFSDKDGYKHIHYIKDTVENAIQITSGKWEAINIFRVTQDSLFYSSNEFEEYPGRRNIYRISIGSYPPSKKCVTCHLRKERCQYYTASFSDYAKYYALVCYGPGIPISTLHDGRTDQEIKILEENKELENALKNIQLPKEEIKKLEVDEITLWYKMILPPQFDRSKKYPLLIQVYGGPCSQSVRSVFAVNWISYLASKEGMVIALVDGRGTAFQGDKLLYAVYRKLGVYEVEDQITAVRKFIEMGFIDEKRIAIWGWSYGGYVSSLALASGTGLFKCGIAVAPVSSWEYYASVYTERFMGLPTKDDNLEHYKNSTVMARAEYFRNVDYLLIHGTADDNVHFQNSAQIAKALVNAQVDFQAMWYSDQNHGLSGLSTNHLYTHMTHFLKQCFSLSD
Test: SPR (ProteOn), human FAP immobilized on GLC chip
Method: Briefly, human FAP was diluted in 10 mM Na-acetate pH 5.3 buffer and covalently immobilized on a GLC chip (BioRad) to a level of around 2000 resonance units (RU). The interaction of ankyrin repeat protein and hFAP was then measured by injecting 200 μl running buffer (PBS, pH 7.4 containing 0.005% Tween 20®) containing serial dilutions of ankyrin repeat proteins covering a concentration range between 30 nM and 0.5 nM (on-rate measurement), followed by a running buffer flow for at least 25 minutes at a constant flow rate of 100 μl/min (off-rate measurement). The regeneration was performed using 15 μl of 10 mM Glycine pH 2 followed by 15 μl of 124 mM H₃PO₄. […] Based on the SPR traces obtained from the on-rate and off-rate measurements, the on- and off-rate of the corresponding ankyrin repeat protein—FAP interaction was determined.
Briefly, mouse FAP was diluted in 10 mM Na-acetate pH5.3 buffer and covalently immobilized on a GLC chip (BioRad) to a level of around 2000 resonance units (RU). The interaction of DARPin® protein #41 and mFAP was then measured by injecting 200 μl running buffer (PBS, pH7.4 containing 0.005% Tween20®) containing serial dilutions of DARPin® protein #41 covering a concentration range between 50 nM and 3 nM (on-rate measurement), followed by a running buffer flow for 30 minutes at a constant flow rate of 100 μl/min (off-rate measurement). […]

B1: DARPin® protein #41 (designed binder)
chain: MRGSHHHHHHGSDLGKKLLEAARAGQDDEVRELLKAGADVNAKDYFSHTPLHLAARNGHLKIVEVLLKAGADVNAKDFAGKTPLHLAANEGHLEIVEVLLKAGADVNAQDIFGKTPADIAADAGHEDIAEVLQKAAGSPTPTPTTPTPTPTTPTPTPTGSDLGEKLLVAALYGQDDEVRILLAAGADVNAKDQWGLTPLHKAALQGHLEIVEVLLKAGADVNAKDERGHTPLHWAARFGHLEIVEVLLKAGADVNAQDQKGYTPADLAALWGHEDIAEVLQKAA
notes: Fusion of a serum albumin-specific and a FAP-specific ankyrin repeat domain
A Kd of 0.264 nM was found for B1 in this work.

Reference: patent publication US20220242973A1 (Molecular Partners, published 2022)
